According to a protein production outcome set (Wang et al. 2014):

Assay: label from the status in PepcDB records

| Sequence | protein production |
| --- | --- |
| MNNLSWSDIKRSTFNAIKKGDLKLLANMIDKYPKVIDAYNSSGYSLLHVAAEQDNVEVLEYLYNNKIDVNITRKNDDGCVTPIHGAVDKNLIGNVEWLIAHGAKIDTGNGIHATPLIGAAFNGNLEMVKLLLKNGADINAFYDIGEGINKTRITPLIAAEMEGHTETCEYLCKNGARKLDAKKYELTQIKNQHDEILQYLQRYFGNVNKTLSEVIPASNVSVNLNIMRNTENDKFITIVTTGMSDCPMDDSDEAFEERFAELIIKLPKDWLIDKNNIKDVNNYWPLGWIRRIAHIPHLYDGWIGKDIIIPNGEPPQPFAPNTKLSCIMICQPDEKELHRFTTSKGNIINLYTLIPIYKEERNMALIKGCKYLRKRMEDRGIDEILNITRENVGLSADEQ | failed |
| MNNQFSQRVSDIIVYSKEEANRLRSRHIGPEHLLLGMLRDGEGKAIEILSKLNTNLAAVKQQIEARLKTEADDMLLPDAEIPLSNDAAKILKMCILEARGMKSNIADTEHVLLAILRERNNMAASVLEANDVNYVKVLEQATLQPD | failed |
| MNNRFNGTSIKQYSTTFLLLGSMASAAHVRAADEFHPNSFNSEALKQSMIAEFALAYDDVPTAIHNYTVLAIKSNSTSIKQRALDIALEYNDLKAALDIATHWVVQEPEDVPAMFYLAHIALRAHEYKLAANTLDKILNIDPNADLEQILAGIAPESKEDRENLLETLKTSKEKENPSILVMIAGLEAQNGHLQDALINTNRALRKRPKVTGFILMKANLLIGLNDIEGAQKWYAKSSKRHRDNLDIRLAEARFLIRHNESELALKKLEDIIKTWPDAEDAKFIAGLTSIDLKQYEKAEQYLVDLRYSAKYQNDAYYYLAVNAERKQHFETAKAYYRLVDGSLYVVSRRNLVSIFEKQGNLNDALRFLTQERVNYPQHASFLYQAQAEILKKTGNKKAALRLLDEAIKNISDDPELIYAEVLLLDPFSDRDKLDRTLKQLLLIEPNSPTYLNAYAYTLALQNRRLDEARQYAELALEYAPEQASILDTLGYIAFLQNDYAAAATSLGKAYTLSNNVNIGIRFAKALYMQGNLTEFSEVLQQLKEKNANDPQLKQLDALILPTVTKKS | failed |
| MNNRKKNIQYLVYSKVIYRIGDVMFDFANNTFLAGLNPASLSLVAVYQSLESVIGVLFNLFGGVIADSFKRKKIIITTNILCGTACLVLSFLTKEQWLVYAIVLTNVILAFMSAFSSPSYKAFTKEIVKKDSISQLNSLLETTSTVIKVTVPMVAIFLYKLLGIHGVLLLDGLSFLIAALLISFILPVNDEVVIKEKVTIREIFNDLKIGFKYVYSHKSIFIITVLSALVNFFLAAYNLLLPYSNQMFGEISTGLYGTFLTAEAIGGFIGAILSGFVNKELSSMRLILFLSLSGLMLMLAPPFYIMFHNAIILALSPALFSLFLSIFNIQFFSLVQKDVDNDFLGRVFGIIFTITILFMPIGTGFFSVALNPNNSFNLFIIGSCITTLSLVFRILFKKYNIR | failed |
| MNNYVKVHQPLNVDLRTQKTQTKLYTVLERFYVEDRTFESISIKDLCEQARVSRATFYRHHKEIIQVIEVQILRTMQYFSLEFDQIILTKENIQRLILRTIQKNPLLFQVIFWSRAENIFIDVVSGEILRISLLKEVSFSDSKFMPNCFARMILSLAAEIQQSNKDYTNDQLVELIQEAARFLQK | not failed |
| MNPAITPILLGLVAGITVTFGALTYIVVGRRLGRRGQGVLNALAGGVLAYLALETGHESAAYVEQFATRETLDSFLAGLMVTSIALLGTWLLLSYVERGYSTLVRAPPGLMVSLTVASALGLHNLGEGLAIAASLIEGKVSLAILFAVGFAIHNYTEGFPIAAPLAGEKKRTGLRTIIGLSLLAGLPVVPGAMVYYLGSNLPGLAIATLYTVAAASIVYAMLHINLSALSRLGGLSSPSFWSSLFLGIALAYVTESIILIAGLH | failed |
| MNPAPERTVMQHVRPLPYEADFTGFLSNTVAPRWMEALRIQRMRTCFPHFDSGAPQHLCIITETTVRYRKPVRYSDAIVGKAWLQSARYSRWIIAFSFAFEFSGLPAFEGRQAGTFIDPLEHHHHHH | failed |
| MNPENWLLLRRVVRFGDTDAAGVMHFHQLFRWCHESWEESLESYGLNPADIFPGSRKSEVTPEVALPIIHCQADFRRPIHTGDALAMELRPERLNPNSFQVHFEFRCEEQIAAHALIRHLAINAQTRHRCALPEGIDRWLEASGVGKIGSI | not failed |
| MNPFQNSFGGHIPQDVAGKQGENVIFIVYNLTDSPDTVDKVKDVCANFSAMIRSMRNRFPDMQFSCTMGFGADAWTRLFPDKGKPKELSTFSEIKGEKYTAVSTPGDLLFHIRAKQMGLCFEFASILDEKLKGAVVSVDETHGFRYMDGKAIIGFVDGTENPAVDENPYHFAVIGEEDADFAGGSYVFVQKYIHDMVAWNALPVEQQEKVIGRHKFNDVELSDEEKPGNAHNAVTNIGDDLKIVRANMPFANTSKGEYGTYFIGYASTFSTTRRMLENMFIGSPAGNTDRLLDFSTAITGTLFFVPSYDLLGELGE | not failed |
| MNPIEFWFDFSSGYAFFAAQRIEALAAELGRTVLWRPYMLGAAFSVTGARGLSSTPLKRDYAQRDWARIARQRGLTFRPPADHPHVALAATRAFYWIEAQSPDAATAFAQRVFDLYFSDRLDTASPEAVSRLGPEVGLEPEALLAGIADPALKETVRKIGEDAVARGIFGSPFFLVDDEPFWGWDRMEMMAEWIRTGGW | not failed |
| MNPITELLDATLWIGGVPILWREIIGNVFGLFSAWAGMRRIVWAWPIGIIGNALLFTVFMGGLFHTPQNLDLYGQAGRQIMFIIVSGYGWYQWSAAKRRALTPENAVAVVPRWASTKERAGIVIAAVVGTLSFAWIFQALGSWGPWADAWIFVGSILATYGMARGWTEFWLIWIAVDIVGVPLLLTAGYYPSAVLYLVYGAFVSWGFVVWLRVQKADKARALEAQESVTV | failed |
| MNPKKLAFYLWLLLVAGGITAYFLYPDEINILFLEDLSEEYYYVALIIYFLLLSARGLTMIPSTPLLLAGVLTFDPLELFIVNMAGILSSSTIVYYFSKFLGFDSYFETKHGKYVRKIRRGLTDKELPVIVGWSFFPLVPTDLIVYVGSSLKIPLLKCLLGVFVGESVLNAFYIFSTNLILKL | failed |
| MNPLDVWYNIKMNVKKQIFKGTLYAVVAGCMWGISGIFGQLFFRDYHGSPLWITSTRLTIAGIILLAMSFSRDHKRFFDVWKSKKNMPTLFLYVFGGVFSVQYFYYVAIQLSNSATATILQYTAPVFIMLYLLIFQRQVPKPKSVLFVILAMIGVFLLITDGNIKHLSISPLALVTGLLAGVAVVIYSIIPRPLLDKYGALNMTGWGMMLAGIACNIFYPVWRIDFRIEPLSIFYVLTISIVGTALAFLLLLRAFQLISPLVVSVATATEPLTSVFLSIPLFGLKLTPLELLGIVMVIVSVILLSKSEQA | failed |
| MNPLKAGDIAPKFSLPDQDGEQVNLTDFQGQRVLVYFYPKAMTPGCTVQACGLRDNMDELKKAGVDVLGISTDKPEKLSRFAEKELLNFTLLSDEDHQVCEQFGVWGEKSFMGKTYDGIHRISFLIDADGKIEHVFDDFKTSNHHDVVLNWLKEHA | not failed |
| MNPMAIISITAFVVALVSGVYIFVKNPESRFNRALLLFSALIAYLSLTDFGLYISESYMMADFWVRMGFLWPIVVPVILHMVLLFTGRRPTMPLLAVIYAPAVVIAALELTTDLITAGPTMTSWGWTFSAAENSLPYQISNIWGFIIASVAIILVALHWRSSRGSDRTQAHYLLTGLILPVLAGVLTDLVLPAAGMAVPSLTDPSAALGVSIIAYGVMRFRLPILSPLNAAMDIVRNMNTFLIITDLGLNIHYVNPATERLTGRRAAEFSGRKVTEVLKFDELSTGSIMESRLRGKDEWIPVIVSAGHVHGSGGEHLGLLFTGSDMRPILEMEEKLRRREDRLVLLTEHMADGLGEFDRDFNFRYLSPSVKKITGYDHEMLTGMSALDFMDYLHPDDTEEVKKLILTRGEGHRATFRIRRPDGNYRWVEYVDRPIRTDGDIEGYVFGLRDIHEHKLAEEALIVSKEKFRELFRNMRSGIIAVESDGKGFRVKSMNPAAERMEGVSCAAIQGMDLQEALPEIWNSPIRRALQEIRETGEAIHCPEVECGEGWFDVHLHQLSTGEVVIICTDITLRKQYEDELRASLREKEALLREVHHRVKNNFQVISSLINLQLDDAEDPAPLRDLQSRIQSMALVHELLYESEDLTSIDMGRYIERLTSSIVNSHHNGEIEVEVAVGDITLPLETAIPLGLIINELVTNSFKHAFTSGGMISVELEEHGGEFTLTITDNGVGLPPDFIIEDSDSLGLRLVAGLVDQIDGTLEVSGEDGTRFRLTFGVVPYRRRV | failed |
| MNPTAGKTSATGEQMASTSADTYSPSRDDFAAMLDESFAGGNLQESSVVKGKVVAIEKDMAVIDVGLKTEGRVALREFSGPGRDSEIKVGDEVEVFLDRIENALGEAVLSRDKARREESWGKLEKAFQNNEKVNGVIFNQVKGGFTVDLDGAVAFLPRSQVDIRPIRDVAPLMNNSQPFQILKMDRRRGNIVVSRRTVLEETRAEQRQELVQNLEEGQVIDGVVKNITDYGAFVDLGGIDGLLHVTDIAWRRVNHPTEVLSIGQTVKVKIIKINHETHRISLGMKQLLDDPWQGIEAKYPLGARFTGRVTNITDYGAFVELEPGIEGLIHVSEMSWTKKNMHPGKIVSTSQEVEVQVLEVDSVKRRISLGLKQTMRNPWEVFVEGHPTGSVVEGEVKNKTEFGLFLGLEGDVDGMVHLSDLDWKLPGEQVIDNYKKGDMVKAVVLDVDVEKERISLGIKQLEGDPFAEPGDVKKGAVVTCEVLEVKESGIEVKIAGTDFTTFIKRSELARDRNDQRAERFAVGEKVDARVIQFDKKARKVQVSIKALEVAEEKEAIAQYGSSDSGATLGDILGTALKNRDSK | failed |
| MNQAMDTKQIAPFTLALPEGEALPLVCDSPHSGTFYPADFGAVVAPERLRGGEDTHVDALWEAVPRVGGTLLAATFPRVYIDPNRMLDDIDPAQLEGPWPTPLAPGEKTRLGYGLIWSNVDAATPIYDRKLTVAEVQRRINRYYRPYHAALTEAVEGAYQRFGAVWHLNLHSMPNNAYERLKIQSPRPLADFVLGDRDGTTCEPGLVDLVERELREKGYTVARNDPYKGVQLIAQIGRPAERRNSLQIEIRRPLYMEEGTRERNEGFATLQRDLTLLTLRIAEYVRRGV | not failed |
| MNQLTQYTITEQEINQSLAKHNNFSKDIGLPGVADAHIVLTNLTSQIGREEPNKVTLTGDANLDMNSLFGSQKATMKLKLKALPVFDKEKGAIFLKEMEVVDATVQPEKMQTVMQTLLPYLNQALRNYFNQQPAYVLREDGSQGEAMAKKLAKGIEVKPGEIVIPFTDLEHHHHHH | not failed |
| MNQNNHFRLTLSTLLQQCQQDITSLPTAMRAVFSWQRGLNELKTLRRTTKLMMSTMLIVTIIGFILGRDYSLHGWIGLLTGITVVINLILVDQGRLTNYSWGIIACAAWLTTAITNRLIGDIASQSFYLIMQFVGITVWHRKMAAQPDASELTGRKLSKLAGCAWFALAVLVYAIVLHFSKQLNGNQIYLDATLLPLGIVGSVLMVNGYRSQWVAWITLDVINVIIWFNQLKGFSPAAASMLALQLVMLANALYGAYLWFFGQNTQQDKLDTH | failed |
| MNQNQNKKTKIVALSMMNSQTSGNPSRGTTKFESYTFDYWQYIDTLVYWGGSSGEGIIVTPSADVIDEAHSNGVPVLGTIFLPPKEYGGKVDWVKTMLKKDEQGQYPFASQMVKVAKTYGFEGWFINEETQGLNADDAANMKALIQQVKKEDSSLQIMWYDAMTKDGKVDWQNQLNDQNATFVQDKAADAMFLNFWWTQNNLADQKLLEKSNLYAKNHNIDPYNIYAGIDVQAKDVQTPVKWNLLEKGNQATQTSIGLYAASATYTNASNWDDFQNRESAFWVNQKADPRQVDHSVNESWTGLSKYVLEKSAISGNEFNTNFNLGNGYNYFKAGQKISEMDWNDRSLAGILPSYRWIIDNEGKNKISPSFDFANAYNGGNSLKFMAEHLDAGKSSNITLFASDLKIAMGAKFSVSMRSDQALKVSAILELANGQKVSIAGDKSLTENWSKLEHHHHHH | not failed |
| MNQQDIKQKVLDVLDHHKVGSLATVAAGAPHSRYMTFFHDGLTIYTPTSKETHKAEEIENNPNVHILLGYDCEGFGDAYVEVAGKAKINNSAELKDKIWSSKLERWFDGKDDPNLVILEIEPEDIRLMNAGEKTPVSLEL | not failed |
